{"source": "paper PMC7272049", "about": "(PLoS ONE, 2020)", "binders": {"B1": {"name": "mB7-1 mIgG2a (Fc fusion, mouse, UniProt Q00609 38-246, looked up)", "chain": "VDEQLSKSVKDKVLLPCRYNSPHEDESEDRIYWQKHDKVVLSVIAGKLKVWPEYKNRTLYDNTTYSLIILGLVLSDRGTYSCVVQKKERGTYEVKHLALVKLSIKADFSTPNITESGNPSADTKRITCFASGGFPKPRFSWLENGRELPGINTTISQDPESELYTISSQLDFNTTRNHTIKCLIKYGDAHVSEDFTWEKPPEDPPDSKN", "notes": "mouse B7-1 (CD80); also called mB7-1 Ig-fusion; B7-1 Fc; source: small-scale purified recombinant protein"}, "B2": {"name": "mCD28 hIgG1 (Fc fusion, mouse, UniProt P31041 20-150, looked up)", "chain": "NKILVKQSPLLVVDSNEVSLSCRYSYNLLAKEFRASLYKGVNSDVEVCVGNGNFTYQPQFRSNAEFNCDGDFDNETVTFRLWNLHVNHTDIYFCKIEFMYPPPYLDNERSNGTIIHIKEKHLCHTQSSPKL", "notes": "mouse CD28; also called soluble mCD28 hIgG1"}, "B3": {"name": "mCD28 mIgG2a (Fc fusion, mouse, UniProt P31041 20-150, looked up)", "chain": "NKILVKQSPLLVVDSNEVSLSCRYSYNLLAKEFRASLYKGVNSDVEVCVGNGNFTYQPQFRSNAEFNCDGDFDNETVTFRLWNLHVNHTDIYFCKIEFMYPPPYLDNERSNGTIIHIKEKHLCHTQSSPKL", "notes": "mouse CD28"}}, "key": {"[1]": {"biological_target": "T1, mPD-L1 Q214A mCherry (mouse, UniProt Q9EP73 19-290, Q214A)", "T1 construct": "mouse PD-L1; source: HEK 293, transfected, on cells; not shown: mCherry, C-terminal, kept", "T1 sequence (Q9EP73 19-290 Q214A)": "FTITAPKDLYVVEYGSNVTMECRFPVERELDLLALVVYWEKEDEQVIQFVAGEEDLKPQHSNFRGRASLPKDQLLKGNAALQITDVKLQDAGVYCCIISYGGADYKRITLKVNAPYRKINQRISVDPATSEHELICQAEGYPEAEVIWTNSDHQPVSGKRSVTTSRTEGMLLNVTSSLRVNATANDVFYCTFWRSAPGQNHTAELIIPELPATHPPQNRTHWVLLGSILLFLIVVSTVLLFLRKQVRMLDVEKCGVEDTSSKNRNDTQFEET", "assay": "flow cytometry on cells; HEK 293 cells expressing PD-L1 mCherry (WT or mutant) queried with protein A microbeads saturated with a 4:1 mixture of PD-1 or B7-1 Fc-fusion and FITC-Fc; no wash; normalised to wild type", "conditions": "one partner purified"}, "[2]": {"biological_target": "T2, mPD-L1 M188A mCherry (mouse, UniProt Q9EP73 19-290, M188A)", "T2 construct": "mouse PD-L1; source: HEK 293, transfected, on cells; not shown: mCherry, C-terminal, kept", "T2 sequence (Q9EP73 19-290 M188A)": "as the sequence (Q9EP73 19-290 Q214A) above, with M170A, A196Q counted along it", "assay": "flow cytometry on cells; HEK 293 cells expressing PD-L1 mCherry (WT or mutant) queried with protein A microbeads saturated with a 4:1 mixture of PD-1 or B7-1 Fc-fusion and FITC-Fc; no wash; normalised to wild type", "conditions": "one partner purified"}, "[3]": {"biological_target": "T3, mPD-L1 E163A mCherry (mouse, UniProt Q9EP73 19-290, E163A)", "T3 construct": "mouse PD-L1; source: HEK 293, transfected, on cells; not shown: mCherry, C-terminal, kept", "T3 sequence (Q9EP73 19-290 E163A)": "as the sequence (Q9EP73 19-290 Q214A) above, with E145A, A196Q counted along it", "assay": "flow cytometry on cells; HEK 293 cells expressing PD-L1 mCherry (WT or mutant) queried with protein A microbeads saturated with a 4:1 mixture of PD-1 or B7-1 Fc-fusion and FITC-Fc; no wash; normalised to wild type", "conditions": "one partner purified"}, "[4]": {"biological_target": "T4, mPD-L1 S142A mCherry (mouse, UniProt Q9EP73 19-290, S142A)", "T4 construct": "mouse PD-L1; source: HEK 293, transfected, on cells; not shown: mCherry, C-terminal, kept", "T4 sequence (Q9EP73 19-290 S142A)": "as the sequence (Q9EP73 19-290 Q214A) above, with S124A, A196Q counted along it", "assay": "flow cytometry on cells; HEK 293 cells expressing PD-L1 mCherry (WT or mutant) queried with protein A microbeads saturated with a 4:1 mixture of PD-1 or B7-1 Fc-fusion and FITC-Fc; no wash; normalised to wild type", "conditions": "one partner purified"}, "[5]": {"biological_target": "T5, mPD-L1 E163R mCherry (mouse, UniProt Q9EP73 19-290, E163R)", "T5 construct": "mouse PD-L1; source: HEK 293, transfected, on cells; not shown: mCherry, C-terminal, kept", "T5 sequence (Q9EP73 19-290 E163R)": "as the sequence (Q9EP73 19-290 Q214A) above, with E145R, A196Q counted along it", "assay": "flow cytometry on cells; HEK 293 cells expressing PD-L1 mCherry (WT or mutant) queried with protein A microbeads saturated with a 4:1 mixture of PD-1 or B7-1 Fc-fusion and FITC-Fc; no wash; normalised to wild type", "conditions": "one partner purified"}, "[6]": {"biological_target": "B1", "assay": "bead-based flow cytometry competition; protein A beads saturated with mB7-1 mIgG2a; 20 nM mPD-L1 hIgG1 or mCD28 hIgG1 with increasing mIgG2a-fused competitor; anti-human Alexa 488", "conditions": "both partners purified"}}}
{"binder": "B1", "values": [{"measurement": "percent of wild-type binding", "setting": "[1]", "result": "~50", "unit": "%"}, {"measurement": "percent of wild-type binding", "setting": "[2]", "result": "~50", "unit": "%"}, {"measurement": "percent of wild-type binding", "setting": "[3]", "result": "~50", "unit": "%"}, {"measurement": "percent of wild-type binding", "setting": "[4]", "result": "~50", "unit": "%"}, {"measurement": "percent of wild-type binding", "setting": "[5]", "result": "~50", "unit": "%"}]}
{"binder": "B2", "values": [{"measurement": "binding result", "setting": "[6]", "result": "binds"}]}
{"binder": "B3", "values": [{"measurement": "binding result", "setting": "[6]", "result": "binds"}]}
